Measured values from the supplement of paper PMC10567573.

B1: GNB5 (parent)
chain: YYPSGDAFASGSDDATCRLYDLRA

Variants of: B1
Assay: protein stability index of a GFP-peptide fusion (GPS, HEK-293T) (PSI 1-6); higher = more stable
Details: c terminus: a fixed tail appended
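Further: lentivirally expressed fusions sorted by FACS into six bins by GFP to DsRed ratio, PSI derived from sequencing read proportions per bin multiplied by bin number.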

Protein stability index of substitutions, site by site:
D6: T 2.13, H 2.26, Q 1.83, N 2.11, L 2.06, A 2.31, I 1.89, M 1.92, E 2.43, V 2.35, K 1.64, Y 1.97, S 2.52, G 2.72, R 1.91, F 2.14, W 1.52
S4: F 2.29, D 3.56, Q 3.48, W 2.49, L 2.52, R 2.46, T 2.86, H 2.87, I 2.8, P 3.78, V 2.56, Y 2.82, E 3.72, A 3.06
S12: Y 2.98, N 2.41, W 2.74, C 2.98, I 2.24, P 2.17, G 1.74, V 2.04, R 2.17, D 3.23, K 2.21, F 2.41, T 2.79, A 2.76, L 2.16, E 2.89, M 2.13, Q 2.08
R23: L 2.03, F 2.27, Q 2.47, N 2.33, K 2.58, G 2.65, C 2.27, Y 2.01, A 2.47, D 3.01, V 2.03, P 2.86, T 2.18, I 2.37, E 3.14
A15: K 2.35, E 2.75, S 2.25, F 2.1, D 3.4, R 2.24, P 2.63, W 2.56, M 2.36, T 2.26, L 2.15, I 1.97, C 1.98
G5: T 3.56, D 3.77, L 2.76, Y 2.4, C 3.39, Q 2.7, P 2.69, A 2.95, H 2.81, F 2.61, S 3.09
D14: E 2.55, L 1.92, W 1.22, T 2.02, M 2.21, C 2.39, Y 1.58, Q 2.27, K 1.93, R 1.9, H 2.2, S 1.94
R18: Q 2.85, V 2.67, W 2.15, S 2.88, D 3.35, K 3.04, E 3.25, N 2.54, L 2.45, G 2.85, Y 2.49, F 2.84, A 3.06, T 2.77
G11: V 1.94, H 2.44, A 2.23, N 2.64, F 1.99, P 2.31, Y 1.98, R 1.83, Q 2.14, C 2.09, W 2.11, E 2.81, I 1.89
Y20: E 3.15, G 2.63, D 3.13, W 2.33, A 2.73, M 2.77, N 2.95, C 2.26, K 2.88, L 2.6, F 2.4, T 2.65, P 3.32, S 2.87
L22: M 2.49, S 3.08, P 2.85, K 3.07, W 2.26, Q 2.55, H 3.09, V 2.62, E 3.34, I 2.78, T 2.73, D 3.03, G 2.65, N 2.84, R 2.75
C17: G 2.85, L 2.87, Y 2.23, T 2.61, K 2.69, I 2.89, D 3.3, S 2.85, V 2.85, M 2.46, E 3.36, R 2.62, H 2.56, F 2.07, W 2.48, Q 2.9, A 2.42
D21: P 2.52, F 1.5, K 2.43, V 1.8, G 2.2, T 1.99, C 1.58, S 1.89, M 2.23, Y 1.61, L 2.02, N 1.99, R 1.99
A7: Q 2.65, T 2.71, P 2.5, W 1.66, M 2.47, K 2.52, Y 2.06, E 3.1, I 2.31, H 2.58, D 3.83, G 3.47, N 2.73, S 2.39
P3: C 2.75, L 2.31, A 2.55, R 2.88, I 2, E 4.01, G 3.33, Y 2, Q 3.21, T 3.52, H 3.04, W 2.32, K 2.64, D 3.46
A24: F 2.07, G 2.7, W 2, Y 2.22, P 2.34, E 2.27, V 1.78, D 2.62, C 2.3, M 2.85, R 2.41
A9: M 2.45, G 2.41, W 1.72, K 2.22, P 3.06, L 1.99, I 2.12, V 2.32, E 3.17, T 2.36, Y 2.04, C 2.36, F 1.9, H 2.15, S 2.56
T16: Y 2.52, P 2.54, G 2.46, L 2.32, Q 2.88, K 3.11, S 2.42, A 2.96, F 2.32, R 2.94, V 1.95, N 2.69, I 2.18
L19: K 2.77, H 2.44, R 2.55, A 2.87, P 2.61, T 3.07, S 2.87, N 2.72, D 3.34, W 2.46, M 2.5, G 2.9, I 2.3, F 2.33, V 2.56
F8: M 3.53, V 4.07, Q 3.71, D 4.4, I 3.42, H 4.09, K 4.19, Y 2.61, C 3.87, R 3.76, S 4.11, A 4.18, L 3.6, N 4.23, W 2.62
D13: V 1.78, A 1.86, G 1.89, T 1.76, S 2.28, I 2.27, E 2.27, R 1.88, Q 2.2, L 1.93, P 2.19
Y1: D 4.09, I 3.52, M 3.67, T 3.6, C 3.3, H 3.95, N 3.71, S 3.99, E 3.81, W 2.86, A 3.83, Q 3.81, F 2.65, P 3.72, R 3.58
S10: W 2.23, E 3, G 2.36, D 3.28, V 2.18, Q 2.54, K 2.25, Y 2.4, H 2.56, I 1.79
Y2: A 1.79, R 3.66, H 2.69, P 3.16, N 3.55, Q 2.4, S 2.18, V 2.02, L 3.34, E 4.83, W 1.75, I 2.25, D 4.29, C 2.09, T 1.96
